According to the MegaScale stability set (Tsuboyama et al. 2023):

B1: EEHEE_rd4_0469 (parent)
chain: ITIHVNGVTYHFDNPEEAEKFAQKMAKTYQLKMEIHNGEFHME

Variants of: B1
Assay: folding stability dG (cDNA display proteolysis); higher = more stable
Conditions: PBS, room temperature

Folding stability dG [kcal/mol]: each site, then its substitutions
M42: F 1.24; I 0.961; Q 0.661; Y 1.02; W 0.913; E 0.615; A 0.838; N 0.637; T 0.657; D 0.727; V 0.797; S 0.715; H 0.709; R 0.687; K 0.711; L 1.3; G 0.673; P 0.756
H41: Y 1.69; K 0.756; I 1.08; C 1.72; E 0.697; S 0.86; D 0.697; M 0.892; N 0.659; R 0.848; F 1.55; P 0.588; G 0.628; T 0.857; A 0.623; V 1.11; Q 0.682; W 1.57; L 0.929
G38: N 0.855; Y 0.871; F 0.963; W 0.914; Q 0.664; V 0.627; H 0.885; L 0.917; M 0.798; D 0.717; P 0.616; C 2.21; R 0.609; T 0.717; I 0.832; E 0.77; A 0.774; S 0.699; K 0.72
H36: R 1.49; N 0.903; W 1.24; Y 1.26; L 1.2; T 0.926; V 1.35; S 0.832; M 0.945; Q 0.93; P 0.499
F40: Q 0.754; W 1.76; C 1.79; P 0.69; G 0.641; R 0.623; M 1.23; A 0.744; I 1.6; S 0.704; N 0.711; D 0.578; H 0.761; Y 1.31; T 0.801; L 1.37; E 0.603; K 0.661; V 1.19
E43: S 1.34; Y 1.94; L 1.61; C 2.31; Q 1.21; W 1.82; R 1.56; D 0.889; H 1.46; K 1.5; V 2.36; P 0.817; N 1.17; M 1.69; T 1.72; A 1.2; I 2.02; F 2.01; G 1.14
E39: Q 1.11; M 0.924; H 1.16; D 0.969; A 1.02; P 0.802; V 1.07; Y 0.934; F 0.886; T 0.836; K 0.828; I 1.17; G 0.755; N 0.81; L 0.728; C 1.69; W 0.978; R 0.762; S 0.882
N37: S 0.831; F 1.19; A 0.861; M 1.03; K 0.81; W 1.17; H 1.11; D 1.02; R 0.716; Q 0.88; T 0.767; V 0.9; I 1.1; E 0.831; L 1.09; Y 1.14; G 1.02; P 0.635
